Data published in patent US20230002480A1.

Key:
Assay in all cases: cell-based or functional assay
[1] = biological target: HIV-1 Env of pseudovirus 7030102001E5(Rev-) (HIV-1)
[2] = biological target: HIV-1 Env of pseudovirus ZM197M.PB7 (HIV-1)
[3] = biological target: HIV-1 Env of pseudovirus THRO4156.18 (HIV-1)
[4] = biological target: HIV-1 Env of pseudovirus T250-4 (HIV-1)
[5] = biological target: HIV-1 Env of pseudovirus Du422.1 (HIV-1)
[6] = biological target: HIV-1 Env of pseudovirus 1394C9G1(Rev-) (HIV-1)
[7] = biological target: HIV-1 Env of pseudovirus 0260.v5.c36 (HIV-1)
[8] = biological target: HIV-1 Env of pseudovirus REJO4541.67 (HIV-1)
[9] = biological target: HIV-1 Env of pseudovirus ZM53M.PB12 (HIV-1)
[10] = biological target: HIV-1 Env of pseudovirus WITO4160.33 (HIV-1)
[11] = biological target: HIV-1 Env of pseudovirus AC10.0.29 (HIV-1)
[12] = biological target: HIV-1 Env of pseudovirus 3365.v2.c2 (HIV-1)
[13] = biological target: HIV-1 Env of pseudovirus BF1266.431a (HIV-1)
[14] = biological target: HIV-1 Env of pseudovirus Q23.17 (HIV-1)
[15] = biological target: HIV-1 Env of pseudovirus SC422661.8 (HIV-1)
[16] = biological target: HIV-1 Env of pseudovirus 246F C1G (HIV-1)
[17] = biological target: HIV-1 Env of pseudovirus Ce703010054_2A2 (HIV-1)
[18] = biological target: HIV-1 Env of pseudovirus Du172.17 (HIV-1)
[19] = biological target: HIV-1 Env of pseudovirus 191084 B7-19 (HIV-1)
[20] = biological target: HIV-1 Env of pseudovirus HIV-16055-2.3 (HIV-1)
[21] = biological target: HIV-1 Env of pseudovirus CAAN5342.A2 (HIV-1)
[22] = biological target: HIV-1 Env of pseudovirus BJOX025000.01.1 (HIV-1)
[23] = biological target: HIV-1 Env of pseudovirus P0402_c2_11 (HIV-1)
[24] = biological target: HIV-1 Env of pseudovirus 0815.v3.c3 (HIV-1)
[25] = biological target: HIV-1 Env of pseudovirus 6480.v4.c25 (HIV-1)
[26] = biological target: HIV-1 Env of pseudovirus 3016.v5.c45 (HIV-1)
[27] = biological target: HIV-1 Env of pseudovirus 89-F1_2_25 (HIV-1)
[28] = biological target: HIV-1 Env of pseudovirus BJOX015000.11.5 (HIV-1)
[29] = biological target: HIV-1 Env of pseudovirus X1193_c1 (HIV-1)
[30] = biological target: HIV-1 Env of pseudovirus R3265.c06 (HIV-1)
[31] = biological target: HIV-1 Env of pseudovirus 231965.c01 (HIV-1)
[32] = biological target: HIV-1 Env of pseudovirus BJOX010000.06.2 (HIV-1)
[33] = biological target: HIV-1 Env of pseudovirus 3817.v2.c59 (HIV-1)
[34] = biological target: HIV-1 Env of pseudovirus 6811.v7.c18 (HIV-1)
[35] = biological target: HIV-1 Env of pseudovirus T278-50 (HIV-1)
[36] = biological target: HIV-1 Env of pseudovirus 6952.v1.c20 (HIV-1)
[37] = biological target: HIV-1 Env of pseudovirus X1254_c3 (HIV-1)

With 10-1074 (antibody) the IC50, titer in TZM.bl cells [1] was 0.006 µg/mL, the IC80, titer in TZM.bl cells [1] was 0.021 µg/mL and the IC50, titer in TZM.bl cells [2] was > 50 µg/mL. The IC80, titer in TZM.bl cells [2] was > 50 µg/mL, the IC50, titer in TZM.bl cells [3] was > 50 µg/mL and the IC80, titer in TZM.bl cells [3] was > 50 µg/mL. The IC50, titer in TZM.bl cells [4] was < 0.001 µg/mL, the IC80, titer in TZM.bl cells [4] was 0.005 µg/mL and the IC50, titer in TZM.bl cells [5] was 0.045 µg/mL. It also gave an IC80, titer in TZM.bl cells [5] of 0.166 µg/mL, an IC50, titer in TZM.bl cells [6] of 0.05 µg/mL and an IC80, titer in TZM.bl cells [6] of 0.191 µg/mL. The IC50, titer in TZM.bl cells [7] was 0.099 µg/mL, the IC80, titer in TZM.bl cells [7] was 0.16 µg/mL and the IC50, titer in TZM.bl cells [8] was > 50 µg/mL. The IC80, titer in TZM.bl cells [8] was > 50 µg/mL, the IC50, titer in TZM.bl cells [9] was > 50 µg/mL and the IC80, titer in TZM.bl cells [9] was > 50 µg/mL. For the same substance, the IC50, titer in TZM.bl cells [10] was 0.185 µg/mL, the IC80, titer in TZM.bl cells [10] was 2.11 µg/mL and the IC50, titer in TZM.bl cells [11] was 0.022 µg/mL. It also gave an IC80, titer in TZM.bl cells [11] of 0.11 µg/mL, an IC50, titer in TZM.bl cells [12] of 0.131 µg/mL and an IC80, titer in TZM.bl cells [12] of 0.45 µg/mL. The IC50, titer in TZM.bl cells [13] was > 50 µg/mL, the IC80, titer in TZM.bl cells [13] was > 50 µg/mL and the IC50, titer in TZM.bl cells [14] was 0.006 µg/mL. It also gave an IC80, titer in TZM.bl cells [14] of 0.021 µg/mL, an IC50, titer in TZM.bl cells [15] of 0.091 µg/mL and an IC80, titer in TZM.bl cells [15] of 0.418 µg/mL. For the same substance, the IC50, titer in TZM.bl cells [16] was 0.022 µg/mL, the IC80, titer in TZM.bl cells [16] was 0.111 µg/mL and the IC50, titer in TZM.bl cells [17] was > 50 µg/mL. For the same substance, the IC80, titer in TZM.bl cells [17] was > 50 µg/mL, the IC50, titer in TZM.bl cells [18] was 0.121 µg/mL and the IC80, titer in TZM.bl cells [18] was 0.43 µg/mL. For the same substance, the IC50, titer in TZM.bl cells [19] was 0.032 µg/mL, the IC80, titer in TZM.bl cells [19] was 0.128 µg/mL and the IC50, titer in TZM.bl cells [20] was > 50 µg/mL. For the same substance, the IC80, titer in TZM.bl cells [20] was > 50 µg/mL, the IC50, titer in TZM.bl cells [21] was 0.007 µg/mL and the IC80, titer in TZM.bl cells [21] was 0.036 µg/mL.

For PGT145 (antibody), the IC50 [1] was > 50 µg/mL, the IC80 [1] was > 50 µg/mL and the IC50, titer in TZM.bl cells [22] was 6.63 µg/mL. For the same substance, the IC80, titer in TZM.bl cells [22] was > 50 µg/mL, the IC50, titer in TZM.bl cells [23] was 0.009 µg/mL and the IC80, titer in TZM.bl cells [23] was 0.038 µg/mL. For the same substance, the IC50, titer in TZM.bl cells [24] was > 50 µg/mL, the IC80, titer in TZM.bl cells [24] was > 50 µg/mL and the IC50, titer in TZM.bl cells [25] was > 50 µg/mL. The IC80, titer in TZM.bl cells [25] was > 50 µg/mL, the IC50, titer in TZM.bl cells [26] was > 50 µg/mL and the IC80, titer in TZM.bl cells [26] was > 50 µg/mL. The IC50 [2] was 0.628 µg/mL, the IC80 [2] was 5.24 µg/mL and the IC50, titer in TZM.bl cells [27] was 0.8 µg/mL. The IC80, titer in TZM.bl cells [27] was 20 µg/mL, the IC50 [3] was 0.01 µg/mL and the IC80 [3] was 0.029 µg/mL. The IC50, titer in TZM.bl cells [28] was > 50 µg/mL, the IC80, titer in TZM.bl cells [28] was > 50 µg/mL and the IC50 [4] was 0.002 µg/mL. For the same substance, the IC80 [4] was 0.039 µg/mL, the IC50 [5] was 22.6 µg/mL and the IC80 [5] was > 50 µg/mL. It also gave an IC50 [6] of 0.001 µg/mL, an IC80 [6] of 0.005 µg/mL and an IC50, titer in TZM.bl cells [29] of 0.013 µg/mL. The IC80, titer in TZM.bl cells [29] was 0.091 µg/mL, the IC50 [7] was > 50 µg/mL and the IC80 [7] was > 50 µg/mL. The IC50 [8] was < 0.001 µg/mL, the IC80 [8] was 0.001 µg/mL and the IC50 [9] was 0.367 µg/mL. For the same substance, the IC80 [9] was 11.8 µg/mL, the IC50 [10] was < 0.001 µg/mL and the IC80 [10] was 0.001 µg/mL. For the same substance, the IC50 [11] was 0.01 µg/mL, the IC80 [11] was 0.025 µg/mL and the IC50, titer in TZM.bl cells [30] was 0.037 µg/mL. The IC80, titer in TZM.bl cells [30] was 0.227 µg/mL, the IC50 [13] was 1.34 µg/mL and the IC80 [13] was 18.5 µg/mL. For the same substance, the IC50, titer in TZM.bl cells [31] was 0.403 µg/mL, the IC80, titer in TZM.bl cells [31] was 15 µg/mL and the IC50 [14] was 1.32 µg/mL. The IC80 [14] was > 50 µg/mL, the IC50 [15] was 0.024 µg/mL and the IC80 [15] was 0.082 µg/mL. For the same substance, the IC50, titer in TZM.bl cells [32] was > 50 µg/mL, the IC80, titer in TZM.bl cells [32] was > 50 µg/mL and the IC50 [16] was > 50 µg/mL. The IC80 [16] was > 50 µg/mL, the IC50 [17] was > 50 µg/mL and the IC80 [17] was > 50 µg/mL. For the same substance, the IC50 [18] was > 50 µg/mL, the IC80 [18] was > 50 µg/mL and the IC50, titer in TZM.bl cells [33] was > 50 µg/mL. For the same substance, the IC80, titer in TZM.bl cells [33] was > 50 µg/mL, the IC50, titer in TZM.bl cells [34] was > 50 µg/mL and the IC80, titer in TZM.bl cells [34] was > 50 µg/mL. For the same substance, the IC50 [19] was 0.028 µg/mL, the IC80 [19] was 0.345 µg/mL and the IC50 [20] was 0.003 µg/mL. For the same substance, the IC80 [20] was 0.051 µg/mL, the IC50, titer in TZM.bl cells [35] was 10.3 µg/mL and the IC80, titer in TZM.bl cells [35] was > 50 µg/mL. For the same substance, the IC50, titer in TZM.bl cells [36] was 3.12 µg/mL, the IC80, titer in TZM.bl cells [36] was > 50 µg/mL and the IC50, titer in TZM.bl cells [37] was 5.6 µg/mL. For the same substance, the IC80, titer in TZM.bl cells [37] was > 50 µg/mL, the IC50 [21] was 6.67 µg/mL and the IC80 [21] was 25.5 µg/mL.
